From US20080064059A1

Key:
[1] = target: glycomyoglobin containing GalNAc-α-threonine at position 4 (myoglobin 4TAG mutant, C-terminal 6x His tag) (UniProt P02185); test: enzyme-linked lectin-binding assay (ELLA), immobilized myoglobin samples, biotinylated lectin, streptavidin-alkaline phosphatase, pNPP at 405 nm; reference: equivalent concentrations of tyrosine-myoglobin
[2] = target: glycomyoglobin containing β-GlcNAc-serine at position 4 (Gly4TAG mutant myoglobin, C-terminal His6 tag) (UniProt P02185); test: ELISA-like assay, 200 ng immobilized myoglobin, biotinylated BSII, streptavidin-alkaline phosphatase, absorbance at 405 nm; reference: wild-type myoglobin
Chain of glycomyoglobin containing β-GlcNAc-serine at position 4 (Gly4TAG mutant myoglobin, C-terminal His6 tag) (P02185 other isoform, or with tags, fused parts or gaps mutant): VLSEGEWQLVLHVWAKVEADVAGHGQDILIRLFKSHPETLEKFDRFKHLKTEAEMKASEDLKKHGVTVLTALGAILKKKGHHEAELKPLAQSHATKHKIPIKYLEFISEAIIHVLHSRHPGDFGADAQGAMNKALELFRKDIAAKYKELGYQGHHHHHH

Chain of glycomyoglobin containing GalNAc-α-threonine at position 4 (myoglobin 4TAG mutant, C-terminal 6x His tag) (P02185 other isoform, or with tags, fused parts or gaps mutant): as above
Chain of Vicia Villosa lectin (VVL), biotinylated conjugate (P56625 whole entry): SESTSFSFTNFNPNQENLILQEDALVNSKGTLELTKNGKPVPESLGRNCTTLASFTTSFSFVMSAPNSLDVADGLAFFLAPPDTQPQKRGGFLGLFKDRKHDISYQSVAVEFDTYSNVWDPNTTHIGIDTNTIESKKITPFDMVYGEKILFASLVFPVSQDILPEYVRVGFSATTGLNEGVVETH

fold signal increase versus tyrosine-myoglobin [1] | fold signal versus wild-type myoglobin [2] | Substance
10 fold | – | Vicia Villosa lectin (VVL), biotinylated conjugate (from UniProt P56625 1-185)
5 fold | – | Dolichos Biflorus lectin (DBL), biotinylated conjugate (from UniProt P05045 23-275)
– | > 200 fold | Bandeiraea simplicifolia II (BSII) lectin, biotinylated
